Key:
[1] = molecular target: T1, cynomolgus monkey beta klotho protein (soluble, used in Biacore) (cynomolgus monkey (Macaca fascicularis), UniProt Q86Z14 53-996 (human entry), limits assumed); assay: Biacore SPR (as in Example 2)
T1 construct: Protein in solution; also called Cyno KLB; cyKLB
T1 chain: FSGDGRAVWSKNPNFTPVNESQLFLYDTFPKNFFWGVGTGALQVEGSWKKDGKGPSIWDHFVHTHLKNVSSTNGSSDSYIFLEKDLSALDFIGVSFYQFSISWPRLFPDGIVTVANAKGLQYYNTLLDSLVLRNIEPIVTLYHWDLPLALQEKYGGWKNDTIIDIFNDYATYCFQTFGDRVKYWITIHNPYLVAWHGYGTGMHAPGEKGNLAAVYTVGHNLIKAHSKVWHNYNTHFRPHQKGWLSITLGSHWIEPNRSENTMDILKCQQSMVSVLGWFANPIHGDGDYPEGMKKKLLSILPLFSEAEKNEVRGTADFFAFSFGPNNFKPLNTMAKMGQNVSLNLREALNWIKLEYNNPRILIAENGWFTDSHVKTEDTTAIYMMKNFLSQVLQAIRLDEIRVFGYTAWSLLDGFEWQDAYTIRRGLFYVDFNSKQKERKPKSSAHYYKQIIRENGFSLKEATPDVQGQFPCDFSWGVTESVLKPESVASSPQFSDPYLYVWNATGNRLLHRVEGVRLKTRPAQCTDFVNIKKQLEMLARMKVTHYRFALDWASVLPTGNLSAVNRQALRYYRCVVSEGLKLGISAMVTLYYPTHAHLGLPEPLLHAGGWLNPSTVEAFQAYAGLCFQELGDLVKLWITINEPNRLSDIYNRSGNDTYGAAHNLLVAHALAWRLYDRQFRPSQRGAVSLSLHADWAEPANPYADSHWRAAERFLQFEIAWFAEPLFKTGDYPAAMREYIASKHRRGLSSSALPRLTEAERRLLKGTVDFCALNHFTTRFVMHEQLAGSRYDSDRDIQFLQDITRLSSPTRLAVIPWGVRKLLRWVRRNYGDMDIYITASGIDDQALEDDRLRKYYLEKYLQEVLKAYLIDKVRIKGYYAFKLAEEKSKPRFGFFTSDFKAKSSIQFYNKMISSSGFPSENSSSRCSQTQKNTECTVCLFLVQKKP

[2] = molecular target: T2, human beta klotho expressed on cells (human, UniProt Q86Z14 1-1044); assay: FACS on transfected Expi293 cells
T2 construct: also called HuKLB overexpressing cells; Human KLB
T2 sequence: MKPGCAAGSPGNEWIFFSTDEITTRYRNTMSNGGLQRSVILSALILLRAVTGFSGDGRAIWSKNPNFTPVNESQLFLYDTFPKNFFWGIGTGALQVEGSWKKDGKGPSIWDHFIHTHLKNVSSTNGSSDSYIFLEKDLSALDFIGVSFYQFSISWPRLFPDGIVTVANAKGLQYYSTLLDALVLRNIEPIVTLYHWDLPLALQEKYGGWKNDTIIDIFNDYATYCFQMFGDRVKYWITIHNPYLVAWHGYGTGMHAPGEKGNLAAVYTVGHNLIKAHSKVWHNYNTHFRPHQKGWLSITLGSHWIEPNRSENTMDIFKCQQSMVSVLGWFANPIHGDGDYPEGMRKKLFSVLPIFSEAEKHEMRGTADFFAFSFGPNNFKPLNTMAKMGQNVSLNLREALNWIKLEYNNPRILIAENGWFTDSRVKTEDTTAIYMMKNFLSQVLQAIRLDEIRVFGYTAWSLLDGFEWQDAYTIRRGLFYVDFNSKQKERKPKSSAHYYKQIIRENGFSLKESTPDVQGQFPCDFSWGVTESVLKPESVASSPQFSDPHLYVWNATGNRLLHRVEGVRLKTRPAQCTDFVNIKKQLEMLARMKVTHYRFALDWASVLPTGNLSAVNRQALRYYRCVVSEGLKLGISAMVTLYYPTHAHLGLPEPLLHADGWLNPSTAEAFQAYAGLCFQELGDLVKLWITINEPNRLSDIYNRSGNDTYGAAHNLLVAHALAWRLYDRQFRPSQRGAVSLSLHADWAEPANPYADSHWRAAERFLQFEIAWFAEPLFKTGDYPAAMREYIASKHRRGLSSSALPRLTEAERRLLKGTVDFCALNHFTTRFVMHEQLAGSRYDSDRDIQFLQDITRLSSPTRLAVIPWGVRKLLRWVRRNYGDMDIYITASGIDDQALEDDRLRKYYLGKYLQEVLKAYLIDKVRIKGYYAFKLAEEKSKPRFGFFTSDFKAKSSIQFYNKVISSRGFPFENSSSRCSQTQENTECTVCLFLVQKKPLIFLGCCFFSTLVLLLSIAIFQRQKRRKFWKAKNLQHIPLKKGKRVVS
Procedure: Studies were performed in order to localize the binding site on human KLB of anti-beta klotho antibodies in the 5H23 epitope bin, including 5H23 as described in Example 3, with sequences shown in Tables 1-10 and FIGS. 1-3, and human anti-beta klotho antibodies in the 5H23 epitope bin, such as humanized 5H23 antibodies (e.g., VH SEQ ID NO: 271 and VL SEQ ID NO: 276). For example, FACS-based binding assays for domain mapping were performed on Expi293 cells (Life Technologies, A14635) that were transiently transfected with plasmids encoding variants of KLB: human, mouse, cynomolgus, a chimeric version in which the KL1 domain sequence of mouse KLB (M1-F506) replaces the KL1 domain of human KLB (M1-F508) to create mouse-human KLB (SEQ ID NO: 376), and a second chimera in which the human KL1 sequence (M1-F508) replaces the KL1 domain of mouse KLB (M1-F506) to create human-mouse KLB (SEQ ID NO: 374). Additionally, the expression vector pYD7 harboring no KLB sequence was transfected as a negative control.
In some studies, binding of a purified sample of a humanized 5H23 antibody (e.g., VH SEQ ID NO: 271 and VL SEQ ID NO: 276) to KLB variants was determined by FACS analysis. […] After washing with PBS/1% BSA/0.1% azide, transfected cells were then co-incubated with labeled anti-human Fc (Jackson lmmunoresearch) for 30 minutes at 4° C. After washing with PBS/1% BSA/0.1% azide, cells were acquired on flow cytometer (FACS Calibur) and analyzed by cytometric software (FlowJo). To display the resulting data, graphs plotting the number of cells as a function of fluorescence intensity were generated, and the median fluorescence intensity (MFI) was determined for each sample as shown in Table 30.

B1: antibody 5H23 (antibody, V domains shown)
VH: QVQLQQSGPELVKPGALVKISCKASGYTFTSYDINWVKQRPGQGLEWIGWIYPGDGSTKYNEKFKGKATLTADKSSRTAYMQLSSLTSENSAVYFCARSDYYGSRSFAYWGQGTLVTVSA
VL: DIVLTQSPASLAVSLGQRATISCRASKSVSTSGYVYMHWNQQKPGQPPKLLIYLASYLESGVPARFSGSGSGTDFTLNIHPVEEEDAAIYYCQHSRDLTFPFGGGTKLEIK
notes: Murine monoclonal antibody from hybridoma; also called 5H23-Alexa647 (labelled form)
[1]
  Kd: 0.7 nM

B2: negative control antibody, anti-keyhole limpet hemocyanin (KLH) antibody (antibody, human IgG1, kappa, V domains shown)
VH: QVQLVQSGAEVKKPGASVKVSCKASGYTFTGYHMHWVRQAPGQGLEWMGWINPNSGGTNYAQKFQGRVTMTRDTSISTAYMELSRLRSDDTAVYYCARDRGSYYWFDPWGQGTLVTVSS
VL: DIQMTQSPSSLSASVGDRVTITCRASQGIRNDLGWYQQKPGKAPKRLIYAASSLQSGVPSRFSGSGSGTEFTLTISSLQPEDFATYYCLQHNSYPLTFGGGTKVEIKR
notes: also called Neg; Control; anti-KLH antibody
[2]
  binding result: no binding (tested: 1 µg/ml)

Source: US20210030857A1 (NGM BIOPHARMACEUTICALS, published 2021)
